“Also recorded” adds a separate entry of the source.

We go through one molecule from patent publication US9850293B2, “Targeting trastuzumab-resistant HER2+ breast cancer with a HER3-targeting nanoparticle” (priority 2014, dated 2017).

Data set [1] has as its system SKBR3 trastuzumab-resistant cells. Kind of data set: Tumor cell killing in culture. Type of data set: cell-based, human. The settings on record: 48-72 h after treatment. How it is done:
(§1) FIG. 21 depicts graph that show the results of the administration of HerDox on various cells. […] N=3. *=p<0.05 compared to parental. […] N=3.
(§2) N=3. *, p<0.05 compared to parental. […] N=3. […] Parental and resistant cell lines were treated with HerDox−/+HER3 blocking peptide (ErbB3 human; Prospec), and tested for cell survival 48 hours later. […] Treatments were compared to mock (saline)-treatment. […] N=3. *, p<0.05 compared to parental. […] N=3.
Each therapeutic was administered at concentration ranges previously established for eliciting therapeutic efficacy.
Each therapeutic was administered at concentration ranges previously established or known in the art for eliciting therapeutic efficacy.

Data set [2] has as its system HER2+ tumors (MDA-MB-435). Kind of data set: In vivo tumor toxicity (tumor growth). Details: species or system mouse. The following applies: 0.004 mg/kg with respect to Dox, daily tail vein injections for 7 days.
A short description of data set [3]: Particle size (cryoEM, dynamic light scattering). The settings on record: round particles. Type of data set: physicochemical. How it is done: (A) depicts a graphic of HerDox formed by non-covalent, serum-stable self-assembly, showing HerPBK10 with functional domains delineated, and electrophilic binding with Dox-intercalated ds-oligo. (B) depicts a CryoEM image of HerDox particles. (C) is a HPLC chromatogram of HerDox showing elution profile of Dox absorbance. […] (D) illustrates the protection of ds-oligo from serum nuclease digestion by HerPBK10. The ds-oligo was incubated for 20 min in 100% mouse serum (Abcam, Cambridge, Mass., USA) before PAGE and EtBr staining to visualize the DNA. (E) illustrates that HerDox remains stable in blood. […] N=3. *, p<0.05, compared to respective retentates.
FIG. 33 illustrates the formation of certain corroles. […] Table summarizes salient features of the three corroles.
In some embodiments, the corrole comprises a metallic chemical element. In some of these embodiments, the metal is a transition metal. In some embodiments, the metal is Iron (Fe), Manganese (Mn), or Gallium (Ga). In other embodiments, the corrole is non-metallated. Metallated and non-metallated corroles bind in protein pockets with negligible dissociation. […] Corrole assembly with HerPBK10 yields 25-35 corroles/protein, resulting in 10-20 nm round particles (FIG. 33-B) that withstand high-speed ultrafiltration.

Data set [4] in a line: Off-target toxicity in treated mice (weight, heart, liver). How it is done:
Relative cell survival (as % of untreated cells) on day 3 of treatment. (+Her), pre-incubation of MDA-MB-435 cells with receptor-blocking ligand (recombinant heregulin) before receiving HerDox. N=3. […] Tissues were harvested from independently injected mice euthanized at indicated time points after injection and fluorescence intensity/tissue acquired using a multimode imager. […] Bar, about 4 μm. […] Day 0=3 days before tail vein injections (mice received daily injections for 7 days). […] Day 0=3 days before tail vein injections (mice received daily injections for 7 days). […] Micrographs (20× magnification) in (E) also show representative H&E stained specimens of myocardia and immunofluorescent specimens of livers from treated mice. Green fluorescence in nuclei indicates apoptosis (positive TUNEL stain).

Data set [5] concerns HER2+ tumors. Kind of data set: HerDox and Dox biodistribution (Dox fluorescence imaging). The source says: FIG. 11 (A) depicts imaging of live mice after IV delivery of HerDox. Tumors are indicated by arrows.
Data set [6] has as its system parental and resistant cell lines (JIMT-1, BT-474, SKBR3). Kind of data set: HerDox −/+ HER3 blocking peptide, cell survival. It counts as cell-based, human. The settings on record: equimolar HER3:HerPBK10, 48 hours. On the procedure: (A)_-illustrates that resistance enhances HerDox toxicity. […] N=3. *, p<0.05 compared to parental. (B)_illustrates that resistance enhances HerDox toxicity. […] N=3. (C) illustrates contribution of HER3 to targeted toxicity. […] Treatments were compared to mock (saline)-treatment. […] N=3. *, p<0.05 compared to parental. […] N=3.
The contribution of HER3 to targeted toxicity was evaluated by assessing whether pre-adsorbing HerDox with a peptide comprising the ligand-binding domain of HER3 blocked cytotoxicity. […] In contrast, HerDox yielded dose-dependent cell death and eliminated up to 90% of the cells (FIG. 27-E).

For data set [7], the system named is BT474 parental cells. The data set can be described thus: Tumor cell killing in culture. It counts as cell-based, human. On the procedure: as §1, §2
Parental cell lines were pre-treated with 0.5 mg/mL Tz for 24 hours before testing these cells for surface HER3 levels. […] Parental cell lines were pre-treated with 0.5 mg/mL Tz for 24 hours before testing these cells for HerPBK10 binding. […] SKBR3 Parental cells were treated with Tz at indicated concentrations (see upper X-axes) 4 and 24 hours before HerDox treatment and assayed for survival at 48-72 h after treatment. N=3. […] SK-474 Parental cells were treated with Tz at indicated concentrations (see upper X-axes) 4 and 24 hours before HerDox treatment and assayed for survival at 48-72 h after treatment. N=3. […] MDA-MB-435 non-resistant cells were treated with Tz at indicated concentrations (see upper X-axes) 4 and 24 hours before HerDox treatment and assayed for survival at 48-72 h after treatment. […] N=3. […] Tz-resistant cells were treated with Tz at indicated concentrations (see upper X-axes) 4 and 24 hours before HerDox treatment and assayed for survival at 48-72 h after treatment. N=3.
N=3. *, p<0.05 compared to parental. […] N=3. […] N=3. […] Tumor volumes were measured by calipers. […] Tumor volumes were measured by calipers. […]

Where [8] appears, read: single tail vein injection, live imaging.
Where [9] appears, read: tissues harvested ~3 h after injection.

B1: HerDox: non-covalent complex of HerPBK10, double-stranded oligonucleotide and intercalated Dox (Unit A+Unit B+Unit C) (conjugate)
chain: SHLVKCAEKEKTFCVNGGECFMVKDLSNPSRYLCKCQPGFTGARCTENVPMKVQNQEKAEELYQKMRRAAMYEEGPPPSYESVVSAAPVAAALGSPFDAPLDPPFVPPRYLRPTGGRNSIRYSELAPLFDTTRVYLVDNKSTDVASLNYQNDHSNFLTTVIQNNDYSPGEASTQTINLDDRSHWGGDLKTILHTNMPNVNEFMFTNKFKARVMVSRLPTKDNQVELKYEWVEFTLPEGNYSETMTIDLMNNAIVEHYLKVGRQNGVLESDIGVKFDTRNFRLGFDPVTGLVMPGVYTNEAFHPDIILLPGCGVDFTHSRLSNLLGIRKRQPFQEGFRITYDDLEGGNIPALLDVDAYQASLKDDTEQGGGGAGGSNSSGSGAEENSNAAAAAMQPVEDMNDHAIRGDTFATRAEEKRAEAEAAAEAAAPAAQPEVEKPQKKPVIKPLTEDSKKRSYNLISNDSTFTQYRSWYLAYNYGDPQTGIRSWTLLCTPDVTCGSEQVYWSLPDMMQDPVTFRSTRQISNFPVVGAELLPVHSKSFYNDQAVYSQLIRQFTSLTHVFNRFPENQILARPPAPTITTVSENVPALTDHGTLPLRNSIGGVQRVTITDARRRTCPYVYKALGIVSPRVLSSRTFKKKKKKKKKK
modifications: left off: small tags and cut ends
In the case of B1, the cell death in data set [1] is above 80%. Moreover, the “effect on tumor growth” value in data set [2] is listed as “essentially prevented tumor growth”. The particle diameter in data set [3] was 10-50 nm. Also, the “cardiac function (echocardiograms)” value in data set [4] (25 days following injections) is “no effect on these measurements”. Besides, the “liver and heart toxicity” value in data set [4] (systemic delivery in vivo) was “avoiding liver and heart toxicity”. Also, in data set [5] (setting [8]), the “time fluorescence remained detectable in the tumors” value was “up to 100 min” and the “time of fluorescence accumulation at the tumors” value is given as at most 20 min. In addition, in data set [5] (setting [9]), the fluorescence in kidneys result was “barely detectable”; the fluorescence in liver result is recorded as “substantially lower levels of fluorescence”; the “fluorescence in other tissues (heart, spleen, lungs, skeletal muscle)” value is reported as “did not exhibit any fluorescence”; the fluorescence in tumors result is recorded as “intense fluorescence in the tumors”. Moreover, the “cell death after pre-adsorbing with HER3 peptide” value in data set [6] was “inhibited by the HER3 peptide”. Also, the “cell death on parental BT474 (comparative)” value in data set [7] (48-72 h after treatment) was “higher cell death compared to Tz and Tz+Pz; also recorded: modestly improved over trastuzumab; also recorded: modestly improved over Tz”. The “enhancement of HerDox toxicity by trastuzumab pre-treatment” value in data set [7] (parental BT474, 4 h pre-treatment) is 50%. For the same molecule, the “enhancement of HerDox toxicity by trastuzumab pre-treatment” value in data set [7] (parental BT474, 24 h pre-treatment) is on record as around 75%.
